Reference: US20190225650A1, “PEPTIDOMIMETIC MACROCYCLES AND USE THEREOF IN REGULATING HIF1ALPHA” (AILERON THERAPEUTICS, INC., priority 2013, published 2019)
Bridge positions count the residues as written; N and C are the ends. Square brackets hold non-standard residues; d marks the D form. R8 = C=CCCCCCC[C@@](C)(N)C(=O)O; S5 = C=CCCC[C@](C)(N)C(=O)O; Nle = CCCC[C@H](N)C(=O)O

Molecular target: T1, His6-tagged p300 (AA 323-423) (UniProt Q09472 323-423)
T1 construct: range 323-423; also called p300-CH; not shown: His6 tag
Test: TR-FRET HIF1a/p300 displacement; grade = IC50 >700 nM
How it was run: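 Peptides competed with HIF1α C-terminal transactivation domain for His6-p300-CH (complex 300 nM final) during 1 h at RT in 20 mM HEPES pH 7.4, 150 mM NaCl, 7.5 mM CHAPS, 1 mM DTT. Anti-Flag-K (0.5 μM) and anti-His-D2 (4 nM) were added for 2 h. IC50 was derived from the TR-FRET ratio by one-site fit.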

T1 sequence (Q09472 323-423 limits assumed): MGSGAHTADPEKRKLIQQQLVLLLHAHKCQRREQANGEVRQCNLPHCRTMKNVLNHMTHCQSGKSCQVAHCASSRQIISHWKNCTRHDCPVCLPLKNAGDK

| IC50 [nM] | Binder |
| --- | --- |
| > 700 | Ac-FIDEEVLM[S5]LVI[S5]MGLDRIKELP-NH2 (staple 9-13; SMILES CC[C@H](C)[C@H](NC(=O)[C@H](Cc1ccccc1)NC(C)=O)C(=O)N[C@@H](CC(=O)O)C(=O)N[C@@H](CCC(=O)O)C(=O)N[C@@H](CCC(=O)O)C(=O)N[C@H](C(=O)N[C@@H](CC(C)C)C(=O)N[C@@H](CCSC)C(=O)N[C@@]1(C)CCCC=CCCC[C@@](C)(C(=O)N[C@@H](CCSC)C(=O)NCC(=O)N[C@@H](CC(C)C)C(=O)N[C@@H](CC(=O)O)C(=O)N[C@@H](CCCNC(=N)N)C(=O)N[C@H](C(=O)N[C@@H](CCCCN)C(=O)N[C@@H](CCC(=O)O)C(=O)N[C@@H](CC(C)C)C(=O)N2CCC[C@H]2C(N)=O)[C@@H](C)CC)NC(=O)[C@H]([C@@H](C)CC)NC(=O)[C@H](C(C)C)NC(=O)[C@H](CC(C)C)NC1=O)C(C)C) [SP-93] |
| > 700 | Ac-FIDEEVLM[S5]LVI[S5]MGLDRI-NH2 (staple 9-13; SMILES CC[C@H](C)[C@H](NC(=O)[C@H](CCCNC(=N)N)NC(=O)[C@H](CC(=O)O)NC(=O)[C@H](CC(C)C)NC(=O)CNC(=O)[C@H](CCSC)NC(=O)[C@]1(C)CCCC=CCCC[C@](C)(NC(=O)[C@H](CCSC)NC(=O)[C@H](CC(C)C)NC(=O)[C@@H](NC(=O)[C@H](CCC(=O)O)NC(=O)[C@H](CCC(=O)O)NC(=O)[C@H](CC(=O)O)NC(=O)[C@@H](NC(=O)[C@H](Cc2ccccc2)NC(C)=O)[C@@H](C)CC)C(C)C)C(=O)N[C@@H](CC(C)C)C(=O)N[C@@H](C(C)C)C(=O)N[C@@H]([C@@H](C)CC)C(=O)N1)C(N)=O) [SP-97] |
| > 700 | Ac-FIDEEVLM[S5]LVI[S5]MALD-NH2 (staple 9-13; SMILES CC[C@H](C)[C@H](NC(=O)[C@H](Cc1ccccc1)NC(C)=O)C(=O)N[C@@H](CC(=O)O)C(=O)N[C@@H](CCC(=O)O)C(=O)N[C@@H](CCC(=O)O)C(=O)N[C@H](C(=O)N[C@@H](CC(C)C)C(=O)N[C@@H](CCSC)C(=O)N[C@@]1(C)CCCC=CCCC[C@@](C)(C(=O)N[C@@H](CCSC)C(=O)N[C@@H](C)C(=O)N[C@@H](CC(C)C)C(=O)N[C@@H](CC(=O)O)C(N)=O)NC(=O)[C@H]([C@@H](C)CC)NC(=O)[C@H](C(C)C)NC(=O)[C@H](CC(C)C)NC1=O)C(C)C) [SP-101] |
| > 700 | Ac-FIDEEVLM[S5]LVI[S5]MGLD-NH2 (staple 9-13; SMILES CC[C@H](C)[C@H](NC(=O)[C@H](Cc1ccccc1)NC(C)=O)C(=O)N[C@@H](CC(=O)O)C(=O)N[C@@H](CCC(=O)O)C(=O)N[C@@H](CCC(=O)O)C(=O)N[C@H](C(=O)N[C@@H](CC(C)C)C(=O)N[C@@H](CCSC)C(=O)N[C@@]1(C)CCCC=CCCC[C@@](C)(C(=O)N[C@@H](CCSC)C(=O)NCC(=O)N[C@@H](CC(C)C)C(=O)N[C@@H](CC(=O)O)C(N)=O)NC(=O)[C@H]([C@@H](C)CC)NC(=O)[C@H](C(C)C)NC(=O)[C@H](CC(C)C)NC1=O)C(C)C) [SP-98] |
| > 700 | Ac-FIDEEVLM[S5]LVI[S5]MG-NH2 (staple 9-13; SMILES CC[C@H](C)[C@H](NC(=O)[C@H](Cc1ccccc1)NC(C)=O)C(=O)N[C@@H](CC(=O)O)C(=O)N[C@@H](CCC(=O)O)C(=O)N[C@@H](CCC(=O)O)C(=O)N[C@H](C(=O)N[C@@H](CC(C)C)C(=O)N[C@@H](CCSC)C(=O)N[C@@]1(C)CCCC=CCCC[C@@](C)(C(=O)N[C@@H](CCSC)C(=O)NCC(N)=O)NC(=O)[C@H]([C@@H](C)CC)NC(=O)[C@H](C(C)C)NC(=O)[C@H](CC(C)C)NC1=O)C(C)C) [SP-99] |
| > 700 | Ac-FIDEEVLM[S5]LVI[S5]MA-NH2 (staple 9-13; SMILES CC[C@H](C)[C@H](NC(=O)[C@H](Cc1ccccc1)NC(C)=O)C(=O)N[C@@H](CC(=O)O)C(=O)N[C@@H](CCC(=O)O)C(=O)N[C@@H](CCC(=O)O)C(=O)N[C@H](C(=O)N[C@@H](CC(C)C)C(=O)N[C@@H](CCSC)C(=O)N[C@@]1(C)CCCC=CCCC[C@@](C)(C(=O)N[C@@H](CCSC)C(=O)N[C@@H](C)C(N)=O)NC(=O)[C@H]([C@@H](C)CC)NC(=O)[C@H](C(C)C)NC(=O)[C@H](CC(C)C)NC1=O)C(C)C) [SP-102] |
| > 700 | Ac-FIDEEVLM[S5]LVI[S5]MALDRIKE-NH2 (staple 9-13; SMILES CC[C@H](C)[C@H](NC(=O)[C@H](CCCNC(=N)N)NC(=O)[C@H](CC(=O)O)NC(=O)[C@H](CC(C)C)NC(=O)[C@H](C)NC(=O)[C@H](CCSC)NC(=O)[C@]1(C)CCCC=CCCC[C@](C)(NC(=O)[C@H](CCSC)NC(=O)[C@H](CC(C)C)NC(=O)[C@@H](NC(=O)[C@H](CCC(=O)O)NC(=O)[C@H](CCC(=O)O)NC(=O)[C@H](CC(=O)O)NC(=O)[C@@H](NC(=O)[C@H](Cc2ccccc2)NC(C)=O)[C@@H](C)CC)C(C)C)C(=O)N[C@@H](CC(C)C)C(=O)N[C@@H](C(C)C)C(=O)N[C@@H]([C@@H](C)CC)C(=O)N1)C(=O)N[C@@H](CCCCN)C(=O)N[C@@H](CCC(=O)O)C(N)=O) [SP-100] |
| > 700 | Ac-FIDEEVLM[S5]LVI[S5]MAA-NH2 (staple 9-13; SMILES CC[C@H](C)[C@H](NC(=O)[C@H](Cc1ccccc1)NC(C)=O)C(=O)N[C@@H](CC(=O)O)C(=O)N[C@@H](CCC(=O)O)C(=O)N[C@@H](CCC(=O)O)C(=O)N[C@H](C(=O)N[C@@H](CC(C)C)C(=O)N[C@@H](CCSC)C(=O)N[C@@]1(C)CCCC=CCCC[C@@](C)(C(=O)N[C@@H](CCSC)C(=O)N[C@@H](C)C(=O)N[C@@H](C)C(N)=O)NC(=O)[C@H]([C@@H](C)CC)NC(=O)[C@H](C(C)C)NC(=O)[C@H](CC(C)C)NC1=O)C(C)C) [SP-103] |

Molecular target: T1, His6-tagged p300 (AA 323-423)
Test: TR-FRET HIF1a/p300 displacement; grade = IC50 <=200 nM
Experimental: The ability of peptides to displace HIF1α c-terminal trans-activation domain from p300-CH was measured by a TR FRET assay. […] The complex was diluted to 300 nM final in complete assay media and competitor peptides were added. The complete assay media contained 150 mM NaCl (Sigma +S5150 or equivalent), 20 mM HEPES pH 7.4 (Boston Bioproducts, Ashland, Mass.; #BB-2076), 7.5 mM CHAPS (Thermo #28300 or equivalent), and 1 mM DTT. Protein and peptide were incubated at room temperature for 1 hour before the addition of anti-Flag-K and anti-6×HIS-D2 (CisBio, Bedford Mass.) HTRF reconstitution buffer (50 mM Phosphate pH 7, 0.8 Potassium Flouride, BSA 0.2%)¹ to a final concentration of 0.5 μM and 4 nM respectively. The reaction continued for an additional two hours at room temperature. The reaction was read on a TECAN F500 plate reader with settings recommended by CisBio. The ratio of donor to acceptor fluorescence was calculated. The resulting data was analyzed with Graphpad Prism 5.0. IC50 values were calculated for both proteins using the One Site Fit-LogIC50 equation and presented in the column “IC₅₀ (nM) (HIF1α_p300 Displacement+CHAPS)” of Table 6. ¹ Cisbio USA, Bedford, Mass.; 61HISDLB (lot 007A), 61FG2KLB (024A), HTRF Buffer (62RB3RDF)

| IC50 [nM] | Binder |
| --- | --- |
| ≤ 200 | Ac-FIDE[S5]VLM[S5]LVIE[Nle]ALDRI-NH2 (staple 5-9; SMILES CCCC[C@H](NC(=O)[C@H](CCC(=O)O)NC(=O)[C@@H](NC(=O)[C@@H](NC(=O)[C@H](CC(C)C)NC(=O)[C@]1(C)CCCC=CCCC[C@](C)(NC(=O)[C@H](CCC(=O)O)NC(=O)[C@H](CC(=O)O)NC(=O)[C@@H](NC(=O)[C@H](Cc2ccccc2)NC(C)=O)[C@@H](C)CC)C(=O)N[C@@H](C(C)C)C(=O)N[C@@H](CC(C)C)C(=O)N[C@@H](CCSC)C(=O)N1)C(C)C)[C@@H](C)CC)C(=O)N[C@@H](C)C(=O)N[C@@H](CC(C)C)C(=O)N[C@@H](CC(=O)O)C(=O)N[C@@H](CCCNC(=N)N)C(=O)N[C@H](C(N)=O)[C@@H](C)CC) [SP-119] |
| ≤ 200 | Ac-FIDEQVLM[S5]LVI[S5]MALDRI-NH2 (staple 9-13; SMILES CC[C@H](C)[C@H](NC(=O)[C@H](CCCNC(=N)N)NC(=O)[C@H](CC(=O)O)NC(=O)[C@H](CC(C)C)NC(=O)[C@H](C)NC(=O)[C@H](CCSC)NC(=O)[C@]1(C)CCCC=CCCC[C@](C)(NC(=O)[C@H](CCSC)NC(=O)[C@H](CC(C)C)NC(=O)[C@@H](NC(=O)[C@H](CCC(N)=O)NC(=O)[C@H](CCC(=O)O)NC(=O)[C@H](CC(=O)O)NC(=O)[C@@H](NC(=O)[C@H](Cc2ccccc2)NC(C)=O)[C@@H](C)CC)C(C)C)C(=O)N[C@@H](CC(C)C)C(=O)N[C@@H](C(C)C)C(=O)N[C@@H]([C@@H](C)CC)C(=O)N1)C(N)=O) [SP-282] |
| ≤ 200 | Ac-LLQAE[R8]LLRALD[S5]VNIDEEVL[Nle][S5]LVI[S5][Nle]-NH2 (staple 6-13, 23-27; SMILES CCCC[C@H](NC(=O)[C@]1(C)CCCC=CCCC[C@](C)(NC(=O)[C@H](CCCC)NC(=O)[C@H](CC(C)C)NC(=O)[C@@H](NC(=O)[C@H](CCC(=O)O)NC(=O)[C@H](CCC(=O)O)NC(=O)[C@H](CC(=O)O)NC(=O)[C@@H](NC(=O)[C@H](CC(N)=O)NC(=O)[C@@H](NC(=O)[C@]2(C)CCCC=CCCCCCC[C@@](C)(NC(=O)[C@H](CCC(=O)O)NC(=O)[C@H](C)NC(=O)[C@H](CCC(N)=O)NC(=O)[C@H](CC(C)C)NC(=O)[C@H](CC(C)C)NC(C)=O)C(=O)N[C@@H](CC(C)C)C(=O)N[C@@H](CC(C)C)C(=O)N[C@@H](CCCNC(=N)N)C(=O)N[C@@H](C)C(=O)N[C@@H](CC(C)C)C(=O)N[C@@H](CC(=O)O)C(=O)N2)C(C)C)[C@@H](C)CC)C(C)C)C(=O)N[C@@H](CC(C)C)C(=O)N[C@@H](C(C)C)C(=O)N[C@@H]([C@@H](C)CC)C(=O)N1)C(N)=O) [SP-350] |
